Patent US20050153872A1, “Methods and compositions for the treatment of infection” (priority 2004, published 2005)

Tests used:
[1] = test system: S. aureus strain ATCC BAA-42 MRSA; settings: all agents 5 μg/ml
[2] = test system: HL-7702 human liver cells; assay: Toxicity assessment in mammalian cells; format: cell-based; settings: about 200 micrograms per ml; 48 hours incubation
Method: (§1) To assess potential toxicity to mammalian cells, HL-7702 human liver cells and SMMC-7721 human hepatocellular carcinoma cells (Institute of Biochemistry & Cell Biology, Shanghai, Chinese Academy of Science) were grown in 1640 medium and treated with various fusion peptides. The concentration of antivirus and antibacterial peptides used for treating the cells was about 200 micrograms per ml. Equal amounts of stock solution (20 mM PBS, pH 7.4) was added to the control cells.

[3] = test system: SMMC-7721 human hepatocellular carcinoma cells; assay: Toxicity assessment in mammalian cells; format: cell-based; settings: about 200 micrograms per ml; 48 hours incubation
Method: as §1

[4] = test system: Candida albicans ATCC 10231; assay: In vitro cell growth inhibition assay (OD595, filaments); settings: Ph-CA 5 μg/ml; Ph-SA 5 μg/ml; ampicillin 50 μg/ml; amphotericin B 200 ng/ml; fluconazole 3 μg/ml
[5] = test system: Escherichia coli 02-1-65; assay: In vivo protection of infected mice; parameters: species or system Kungming mice; settings: i.p. infection 3.3 × 10^5 cfu/ml
Method in brief: (§2)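 Kunming mice (18–22 g, both sexes) were infected intraperitoneally with a lethal dose of staphylococci, enterococci or E. coli; agents were diluted in sterile water to 10, 5 and 2.5 mg/L. Deaths were counted every 24 h over 7–14 days.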

[6] = test system: Staphylococcus aureus ATCC 29213; assay: In vivo protection of infected mice; parameters: species or system Kungming mice; settings: i.p. infection 3.6 × 10^5 cfu/ml
Method in brief: as §2

[7] = test system: Staphylococcus aureus MRSA 02-18; assay: microbe, parasite or virus in culture; format: cell-based; settings: Staphylococcus aureus MRSA 02-18
[8] = test system: S. epidermidis BQIOC 26069; format: cell-based; settings: all agents at 2 ug/ml
Method: All agents were at 2 ug/ml.

[9] = test system: MRSA strain ATCC BAA-42; assay: Electron micrographs of bactericidal effects; format: cell-based, S. aureus; settings: Ph-SA 50 μg/ml 0.5 hrs; wild type colicin Ia 50 μg/ml 2 hrs; AgrDI 10 μg/ml 2 hrs
Excerpt: Electron Micrographs of Bactericidal Effects of Ph-SA1 Against ATCC BAA-42 MRSA Strain Cells (1% Phosphotungstic Acid. 25,000×)

[10] = test system: Staphylococcus aureus MRSA BAA-42; assay: microbe, parasite or virus in culture; format: cell-based; settings: Staphylococcus aureus MRSA BAA-42
[11] = test system: ATCC 700802 VRE cells; assay: Electron micrographs of bactericidal effects of Ph-EF; format: cell-based, Enterococcus; settings: Ph-EF 10 ug/ml 0.5 and 2 hr; Ph-SA 10 ug/ml 2 hr; vancomycin 20 ug/ml 2 hr
Method: Electron Microraphs of Bactericidal Effects of Ph-EF Against ATCC 700802 VRE Cells (1% Phosphotungstic Acid, 15.000×).
Bactericidal effects of ph-EF were tested and monitored by electron microscopy. FIG. 16 depicts electron micrographs of (a) untreated cells; (b) and (c) cells treated with Ph-EF (10 ug/ml) for 0.5 hr; (d) untreated cells for 2 hr; (e) cells treated by Ph-SA (10 ug/ml) for 2 hr; (f) cells treated with vancomycin (20 ug/ml) for 2 hr; (g) and (h) cells treated with Ph-EF (10 ug/ml) for 2 hrs.

[12] = test system: Staphylococcus epidermidis MRSE strain (25); assay: In vitro antibacterial activity (MIC), clinical isolates; format: cell-based; settings: 25 MRSE clinical isolates
Method in brief: (§3)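 Clinical isolates collected in Sichuan and Beijing in 2002, identified with the API system, were exposed to test compound to determine MIC50, MIC90 and MIC range. S. aureus ATCC25923, 29213 and BAA-42 served as control strains.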

[13] = test system: Staphylococcus aureus MSSA strain (88); assay: as above; format: cell-based; settings: 88 MSSA clinical isolates
Method in brief: as §3

[14] = test system: Acenetobactor (20); assay: as above; format: cell-based; settings: 20 Acenetobactor clinical isolates
Method in brief: as §3

[15] = test system: Enterococcus (20); assay: as above; format: cell-based; settings: 20 Enterococcus clinical isolates
Method in brief: as §3

[16] = test system: Staphylococcus epidermidis MSSE strain (21); assay: as above; format: cell-based; settings: 21 MSSE clinical isolates
Method in brief: as §3

[17] = test system: Staphylococcus aureus MRSA strain (80); assay: as above; format: cell-based; settings: 80 MRSA clinical isolates
Method in brief: as §3

[18] = test system: Enterococcus faecalis ATCC 700802; assay: microbe, parasite or virus in culture; format: cell-based; settings: Enterococcus faecalis, ATCC700802
[19] = test system: Enterococcus faecalis ATCC 700802; assay: In vivo protection of infected mice; parameters: species or system Kungming mice; settings: mice, i.p. infection 8.0 × 10^6 cfu/ml
Method in brief: as §2

[20] = test system: Staphylococcus aureus MRSA BAA-42; assay: In vivo protection of infected mice; parameters: species or system Kungming mice; settings: mice, i.p. infection 5.5 × 10^5 cfu/ml
Method in brief: as §2

[21] = test system: Staphylococcus aureus MRSA 02-18; assay: In vivo protection of infected mice; parameters: species or system Kungming mice; settings: mice, i.p. infection 1.7 × 10^5 cfu/ml
Method in brief: as §2

[22] = test system: Staphylococcus aureus ATCC 29213; assay: MIC against challenge strain (Table 3); format: cell-based
[23] = test system: Aspergillus niger SWA 1011 strain; assay: In vitro cell growth inhibition assay; settings: Ph-CA 5 μg/ml; Ph-SA 5 μg/ml; amphotericin B 200 ng/ml; Fluconazole 3 μg/ml
[24] = test system: Escherichia coli 02-1-65; assay: MIC against challenge strain (Table 3); format: cell-based
[25] = 1st Time, i.v. treatment after one hour
[26] = 2nd Time (value in parentheses), i.v. treatment

B1: Ph-SA1: Colicin Ia linked to the AgrDI pheromone of S. aureus (protein)
chain: SDPVRITNPGAESLGYDSDGHEIMAVDIYVNPPRVDVFHGTPPAWSSFGNKTIWGGNEWVDDSPTRSDIEKRDKEITAYKNTLSAQQKENENKRTEAGKRLSAAIAAREKDENTLKTLRAGNADAADITRQEFRLLQAELREYGFRTEIAGYDALRLHTESRMLFADADSLRISPREARSLIEQAEKRQKDAQNADKKAADMLAEYERRKGILDTRLSELEKNGGAALAVLDAQQARLLGQQTRNDRAISEARNKLSSVTESLNTARNALTRAEQQLTQQKNTPDGKTIVSPEKFPGRSSTNHSIVVSGDPRFAGTIKITTSAVIDNRANLNYLLSHSGLDYKRNILNDRNPVVTEDVEGDKKIYNAEVAEWDKLRQRLLDARNKITSAESAVNSARNNLSARTNEQKHANDALNALLKEKENIRNQLSGINQKIAEEKRKQDELKATKDAINFTTEFLKSVSEKYGAKAEQLAREMAGQAKGKKIRNVEEALKTYEKYRADINKKINAKDRAAIAAALESVKLSDISSNLNRFSRGLGYAGKFTSLADWITEFGKAVRTENWRPLFVKTETIIAGNAATALVALVFSILTGSALGIIGYGLLMAVTGALIDESLVEKANKFWGIYSTCDFIM
modifications: Colicin attached to Pheromone peptide encoding Staphylococcus aureus AgrDI
Q: How did the inhibition of growth [1] turn out when B1 was run?
A: best inhibitory effects

Q: What about the “cell morphology and cell growth (toxicity)” value [2] of the same molecule?
A: not toxic to the liver cells

Q: What about the “cell morphology and cell growth (toxicity)” value [3] of the same molecule?
A: not toxic to the liver cells

Q: What about the “effect on growth of Candida albicans” value [4] of the same molecule?
A: no effect on the growth

Q: And the ED50 [5, 25]?
A: 3.14 mg/kg

Q: And the ED50 [5, 26]?
A: (3.12) mg/kg

Q: What about the ED50 [6, 25] of the same molecule?
A: 10.35 mg/kg

Q: And the ED50 [6, 26]?
A: (8.87) mg/kg

Q: And the MIC [7]?
A: 0.5 µg/mL

Q: What about the “inhibition of cell growth” value [8] of the same molecule?
A: only partially inhibited

Q: And the “bactericidal effect / effect on cell growth (electron micrographs)” value [9]?
A: killed BAA-42 MRSA cells

Q: And the MIC [10]?
A: 0.5 µg/mL

Q: What about the “morphological alteration in VRE cells (electron micrographs)” value [11] of the same molecule?
A: no morphological alteration

Q: And the MIC50 [12]?
A: >64 mg/L

Q: What about the MIC90 [12] of the same molecule?
A: >64 mg/L

Q: And the MIC50 [13]?
A: 0.5 mg/L

Q: What about the MIC90 [13] of the same molecule?
A: 16 mg/L

Q: What about the MIC50 [14] of the same molecule?
A: 32 mg/L

Q: What about the MIC90 [14] of the same molecule?
A: >64 mg/L

Q: And the MIC50 [15]?
A: >64 mg/L

Q: What about the MIC90 [15] of the same molecule?
A: >64 mg/L

Q: What about the MIC50 [16] of the same molecule?
A: 0.25 mg/L

Q: And the MIC90 [16]?
A: 16 mg/L

Q: And the “MIC Scope” value [16]?
A: 0.125˜32 mg/l

Q: And the MIC50 [17]?
A: 16> mg/l

Q: What about the MIC90 [17] of the same molecule?
A: 16 mg/L

Q: And the “MIC Scope” value [17]?
A: <0.0005˜64 mg/l

Q: What about the MIC [18] of the same molecule?
A: 4 µg/mL

Q: And the ED50 [19, 25]?
A: 4.23 mg/kg

Q: And the ED50 [19, 26]?
A: (3.70) mg/kg

Q: What about the ED50 [20, 25] of the same molecule?
A: 4.32 mg/kg

Q: What about the ED50 [20, 26] of the same molecule?
A: (4.23) mg/kg

Q: What about the ED50 [21, 25] of the same molecule?
A: 3.84 mg/kg

Q: And the ED50 [21, 26]?
A: (4.24) mg/kg

Q: What about the MIC [22] of the same molecule?
A: 0.25 µg/mL

Q: And the “effect on growth of Aspergillus niger” value [23]?
A: no effect on the growth

Q: What about the MIC [24] of the same molecule?
A: 1 µg/mL
